# Test results published in article PMC12133298.
# Biological target: Rho WT (Escherichia coli) (UniProt P0AG30)
# Assay: EMSA
# Conditions: 4 C, 1 mM ATP, 5 mM Mg2+, 25 mM Tris-Cl pH 8.0, 50 mM KCl, 5 mM MgCl2, 1 mM DTT, 37 C (or 4 C), 15 min, 0.8% agarose 0.5x TBE, 5 nM DNA
# Chain of Rho WT (Escherichia coli) (P0AG30 whole entry): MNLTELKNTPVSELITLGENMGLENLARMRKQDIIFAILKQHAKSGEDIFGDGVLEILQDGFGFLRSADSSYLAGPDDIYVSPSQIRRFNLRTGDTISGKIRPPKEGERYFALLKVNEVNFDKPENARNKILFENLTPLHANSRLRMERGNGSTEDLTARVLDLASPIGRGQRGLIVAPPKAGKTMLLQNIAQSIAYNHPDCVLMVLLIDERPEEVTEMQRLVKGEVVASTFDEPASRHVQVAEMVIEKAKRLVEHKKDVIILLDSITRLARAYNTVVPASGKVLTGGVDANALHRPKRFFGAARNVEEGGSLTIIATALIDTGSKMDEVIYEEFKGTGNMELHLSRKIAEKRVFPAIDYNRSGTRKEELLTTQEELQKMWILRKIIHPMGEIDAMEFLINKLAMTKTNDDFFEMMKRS
substance,measurement,value
3.5 kb linear dsDNA,Kd,12 nM
